Laboratory results: US20230110287A1

Target: mouse (murine) NGF (mouse) (UniProt P01139)
Assay: SPR, purified antibody, beta muNGF, 39 C

Chain of mouse (murine) NGF (mouse) (P01139 122-241 limits assumed): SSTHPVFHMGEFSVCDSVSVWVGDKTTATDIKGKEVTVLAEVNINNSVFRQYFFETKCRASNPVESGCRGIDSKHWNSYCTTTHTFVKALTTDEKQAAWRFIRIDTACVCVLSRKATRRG

A Kd of 0.905 pM, a koff of 6.2e-06 s⁻¹ and a kon of 6.86e+06 M⁻¹ s⁻¹ were found for “chimeric αD11 (rat αD11 variable regions fused to canine constant chain regions) (antibody)” in this work.
